Where a chain is given by its changes, count along the chain named. In names and notes the source's numbering stands. Square brackets hold non-standard residues; d marks the D form. pGlu = O=C1CC[C@@H](C(=O)O)N1
T1: pE3-16 (Pyr-…-biotin) (human)
T1 construct: also called pE3-16B
T1 peptide: [pGlu]FRHDSGYEVHHQK-biotin

B1: Antibody II (R17L) (antibody, human IgG1, kappa, V domains shown)
VH: QVQLVQSGAEVKKPGSSVKVSCKASGYTFTRYYINWVRQAPGQGLEWMGWINPGSGNTKYNEKFKGRVTITADESTSTAYMELSSLRSEDTAVYYCAREGTTVYWGQGTTVTVSS
VL: DIVMTQTPLSLSVTPGQPASISCKSSQSLLYSRGKTYLNWLLQKPGQSPQLLIYAVSKLDSGVPDRFSGSGSGTDFTLKISRVEAEDVGVYYCVQGTHYPFTFGQGTKLEIKR
notes: Human engineered anti-N3pGlu Aβ monoclonal antibody
B2: Antibody VII (mE8c) (antibody, mouse IgG2a, kappa, V domains shown)
VH: EVQLLESGPELVKPGASVKISCKASGYTFTDYYINWVKQRPGQGLEWIGWINPGSGNTKYNEKFKGKATLTVDTSSSTAYMQLSSLTSEDSAVYFCTREGETVYWGQGTTLTVSS
VL: B1 VL with D1N, M4L, S10T, P15I, K44R, Q50K, L51R, S68I, V88L, Q105S
notes: Mouse IgG2a isotype of the mE8 clone; also called mE8c - IgG2a; parental mouse antibody
B3: Antibody I (B12L) (antibody, human IgG1, kappa, V domains shown)
VH: B1 VH with T28D, T101I
VL: B1 VL
notes: as for B1

Target: T1, pE3-16 (Pyr-…-biotin)
Experiment: SPR (BIACORE 2000), antibody captured, peptide injected
B1: binds.
B2: binds.
B3: binds.

These binders were tested against T2, Aβ1-40 (UniProt P05067 672-711) in the same assay as above.
T2 construct: domain: Aβ1-40; The numbers 1-40 count on the Aβ peptide, not on the APP precursor
T2 sequence (P05067 672-711 limits assumed): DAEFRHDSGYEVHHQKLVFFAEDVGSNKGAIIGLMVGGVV
B1: no binding.
B2: no binding.
B3: no binding.
